Measured values: paper PMC12153337, “A temperature-driven DNA discrimination strategy to distinguish E. coli DNA and phage 5hmC-modified DNA” (Nucleic Acids Research, 2025)

How the values were obtained:
[1] = molecular target: the molecule itself; assay: native gel or EMSA; native gel electrophoresis of purified DexA after SEC, room temperature
[2] = molecular target: the molecule itself; assay: SEC; Superdex 200 HiLoad 26/600, PBS buffer, room temperature 22°C; size estimated from the elution volume
[3] = molecular target: the molecule itself; assay: cryo-EM structure; single-particle cryo-EM, 2D classification of conformers; 5 μM, incubated at 37°C for 1 h
[4] = molecular target: the molecule itself; assay: SEC-MALS; Superdex 75 10/300 GL, 0.5 ml/min, 25°C

B1: bacteriophage T4 exonuclease DexA (enzyme, UniProt P04536 1-227, looked up)
chain: MFDFIIDFETMGSGEKAAVIDLAVIAFDPNPEVVETFDELVSRGIKIKFDLKSQKGHRLFTKSTIEWWKNQSPEARKNIAPSDEDVSTIDGIAKFNDYINAHNIDPWKSQGWCRGMSFDFPILVDLIRDIQRLNGVSENELDTFKLEPCKFWNQRDIRTRIEALLLVRDMTTCPLPKGTLDGFVAHDSIHDCAKDILMMKYALRYAMGLEDAPSEEECDPLSLPTKR
notes: DexA (dexA gene product), 3'-5' exonuclease of bacteriophage T4, amplified from the T4 genome; 26.0 kDa per monomer; Exists in a dimer-tetramer equilibrium that depends on temperature, so copies is left empty; also called ExoD; wild-type DexA; source: E. coli BL21(DE3), pET46, purified (Ni-NTA, SEC)
stoichiometry N [1]: 4 | stoichiometry N [2]: ≥ 2 | stoichiometry N [3]: 2

B2: DexA^S87A/D90A (enzyme, bacteriophage T4, UniProt P04536 1-227, looked up)
chain: MFDFIIDFETMGSGEKAAVIDLAVIAFDPNPEVVETFDELVSRGIKIKFDLKSQKGHRLFTKSTIEWWKNQSPEARKNIAPSDEDVATIAGIAKFNDYINAHNIDPWKSQGWCRGMSFDFPILVDLIRDIQRLNGVSENELDTFKLEPCKFWNQRDIRTRIEALLLVRDMTTCPLPKGTLDGFVAHDSIHDCAKDILMMKYALRYAMGLEDAPSEEECDPLSLPTKR
notes: DexA of bacteriophage T4 with S87A and D90A, made by site-directed mutagenesis of the dexA plasmid; Full length is said of the native protein only; the mutant was made from the same plasmid; also called dimeric mutant; contact 2 mutant; source: E. coli BL21(DE3), pET46, purified (Ni-NTA, SEC)
stoichiometry N [4]: 2

B3: DexA^D181A/S72A (enzyme, bacteriophage T4, UniProt P04536 1-227, looked up)
chain: MFDFIIDFETMGSGEKAAVIDLAVIAFDPNPEVVETFDELVSRGIKIKFDLKSQKGHRLFTKSTIEWWKNQAPEARKNIAPSDEDVSTIDGIAKFNDYINAHNIDPWKSQGWCRGMSFDFPILVDLIRDIQRLNGVSENELDTFKLEPCKFWNQRDIRTRIEALLLVRDMTTCPLPKGTLAGFVAHDSIHDCAKDILMMKYALRYAMGLEDAPSEEECDPLSLPTKR
notes: DexA of bacteriophage T4 with D181A and S72A, made by site-directed mutagenesis of the dexA plasmid; Full length is said of the native protein only; the mutant was made from the same plasmid; also called contact 1 mutant; source: E. coli BL21(DE3), pET46, purified (Ni-NTA, SEC)
binding result [4]: binds
